Source: article PMC4105405, “VapC from the Leptospiral VapBC Toxin-Antitoxin Module Displays Ribonuclease Activity on the Initiator tRNA” (PLoS ONE, 2014)

Target: the molecule itself
Experiment: non-reducing SDS-PAGE

Row | Protein | stoichiometry N
1 | VapC toxin from Leptospira interrogans serovar Copenhageni (LIC12660), 6xHis-tagged, refolded by hig (enzyme, also called pressurized VapC) MYLLDTNICIFLIKKKNATLLENLKKKLNKDLFVSSLTVAELEFGIQKSEFKEKNKVALIEFLTIFNILSFSDKDAESYGIIRADLERKGNVIGSIDMLLAAQAIANNYIFVTNNTKEFKRIKALKIENWTQ | 2
2 | VapC toxin from Leptospira interrogans serovar Copenhageni (LIC12660), non-tagged, co-expressed with VapB (enzyme, Translated from the bicistronic mRNA under a single promoter; also called non-tagged VapC) MYLLDTNICIFLIKKKNATLLENLKKKLNKDLFVSSLTVAELEFGIQKSEFKEKNKVALIEFLTIFNILSFSDKDAESYGIIRADLERKGNVIGSIDMLLAAQAIANNYIFVTNNTKEFKRIKALKIENWTQ | 2
